In the assay the target is T1, human CRBN protein (cereblon), full-length 51 kDa (human, UniProt Q96SW2 1-442).
T1 construct: also called human CRBN isoform 1 (NP-057386)
The experiment in a line: denaturing immunoblot. The procedure: CGN-6-4-5 was diluted 1:10,000 dilution in 0.1% Tween PBS buffer. […] Peptide neutralization was performed by combining antibody with a five-fold (by weight) excess of blocking peptide in 500 μl PBS and incubating with constant rotation at room temperature for 2 hours.
In general terms: A western blot detects proteins with antibodies after separation by electrophoresis.

T1 sequence (Q96SW2 whole entry, canonical isoform): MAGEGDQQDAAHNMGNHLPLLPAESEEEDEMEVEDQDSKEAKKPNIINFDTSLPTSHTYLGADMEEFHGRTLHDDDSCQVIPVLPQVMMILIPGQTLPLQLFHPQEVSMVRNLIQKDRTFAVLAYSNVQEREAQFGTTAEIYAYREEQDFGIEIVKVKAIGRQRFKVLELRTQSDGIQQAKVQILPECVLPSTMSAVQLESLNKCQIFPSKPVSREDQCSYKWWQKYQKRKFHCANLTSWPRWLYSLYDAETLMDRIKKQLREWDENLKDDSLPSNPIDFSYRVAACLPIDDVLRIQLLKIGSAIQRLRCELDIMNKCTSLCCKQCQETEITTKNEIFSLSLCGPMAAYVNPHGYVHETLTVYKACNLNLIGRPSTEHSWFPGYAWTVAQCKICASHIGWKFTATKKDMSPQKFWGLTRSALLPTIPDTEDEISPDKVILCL

B1: Rabbit monoclonal antibody CGN-6-4-5 (antibody, V domains shown)
VH: QSVEESGGRLVTPGTPLTLTCTVSGFSLSRYGVSWVRQAPGKGLEHIGYIYSDPGMTFYATWAKGRFTISKTSSTTVDLKMTSPTIEDTATYFCARGTPLASYSTWGPGTLVTISL
VL: AQVLTQTPASVSAAVGGTVTINCQSSENIYKNNYLSWFQQKPGQPPKLLIYQASTLASGVPSRFKGSGSGTRFSLTISDLECDDAATYYCAGGYSGNIFTFGGGTEVVVKG
notes: Rabbit IgG from a CGN-6 hybridoma clone of rabbits primed with residues 65-76 of human CRBN; also called monoclonal anti-CRBN antibody
Consider B1, for which the binding result is “binds”.

The record behind these values is patent US20120322073A1 (CELGENE, published 2012).
